Square brackets hold non-standard residues; d marks the D form. Peptide text beside a SMILES is read from it. Dap = NC[C@H](N)C(=O)O A value given as a limit tells only on which side of the number the result lay.

In experiment [1] the test system is NCI-H441 lung adenocarcinoma cells (suspension spheroid cultures). The class given is cell-based, human.
In experiment [2] the test system is SW620 xenograft of human KRAS G12V mutant colorectal cancer. Description: In vivo SW620 xenograft model. Also noted: species or system Female NCr nu/nu mice. The protocol: FIG. 12 illustrates that RAS-targeting pept-ins reduce tumor growth in a xenograft model of KRAS G12V mutant cancer. […] Pept-ins were dosed 3 times per week by intratumoral injection at either 20 or 200 μg once the tumors reached 100-150 mm^3. Model response was monitored by a positive control group receiving Irinotecan at 100 mg/kg, once per week for 3 weeks. Group sizes were N=6 for the non-treated group, N=5 for the vehicle groups and N=8 for the pept-in and positive control groups. Graphs show box plots of tumor volumes at day 22 after treatment started.
Female NCr nu/nu mice (8 to 12 weeks) were inoculated with 1×10^6 SW620 tumor cells in 50% Matrigel subcutaneously in the hind flank. The cell Injection Volume was 0.1 mL/mouse. When tumors reached an average size of 100-150 mm^3 a pair match was performed, and treatment started. Group sizes were N=6 for the non-treated group, N=5 for the vehicle groups and N=8 for the pept-in and positive control groups. Tumor growth was monitored by caliper measurement twice per week. Model response was monitored by Irinotecan dosed once per week at 100 mg/kg intraperitoneally for 3 weeks.
To assess whether the RAS-targeting pept-ins are able to attenuate growth of KRAS G12V-driven tumors in vivo, a subcutaneous xenograft model of human KRAS G12V colorectal cancer (SW620) was used. Once the tumors reached 100-150 mm^3 in size, pept-ins were administered directly into the tumor mass by intratumoral injection three times per week during two weeks at two different doses (20 μg and 200 μg).

Experiment [3] concerns the target T1, KRAS G12V (human, UniProt P01116-2 1-188, limits assumed). Description: cell-based or functional assay.
The target in experiment [4] is T1, KRAS G12V. Description: cell-based or functional assay. This is another data set of the same source.
The target in experiment [5] is T1, KRAS G12V. Briefly: cell-based or functional assay. The source holds these as a separate data set.

One may read the IC50 as the point on the concentration scale where inhibition reaches its midpoint. `CC(=O)N[C@@H](CCCCN)C(=O)N[C@H](C(=O)N[C@H](C(=O)N[C@H](C(=O)NCC(=O)N[C@@H](C)C(=O)N[C@H](C(=O)N[C@@H](CCCCN)C(=O)NCC(=O)N[C@@H](CO)C(=O)N[C@@H](C)C(=O)N[C@H](C(=O)N[C@H](C(=O)N[C@H](C(=O)NCC(=O)N[C@@H](C)C(=O)N[C@H](C(=O)N[C@@H](CCCCN)C(N)=O)C(C)C)C(C)C)C(C)C)C(C)C)C(C)C)C(C)C)C(C)C)C(C)C` [04-006-N053]: the IC50 in experiment [1] came out at 21.6 µM.

In the case of `CC(=O)N[C@@H](CCCCN)C(=O)N[C@H](C(=O)N[C@H](C(=O)N[C@H](C(=O)NCC(=O)N[C@@H](C)C(=O)N[C@H](C(=O)NCC(=O)N[C@@H](CCCCN)C(=O)NCC(=O)N[C@@H](CO)C(=O)N[C@@H](CCCCN)C(=O)N[C@H](C(=O)N[C@H](C(=O)N[C@H](C(=O)NCC(=O)N[C@@H](C)C(=O)N[C@H](C(=O)NCC(=O)N[C@@H](CCCCN)C(N)=O)C(C)C)C(C)C)C(C)C)C(C)C)C(C)C)C(C)C)C(C)C)C(C)C` [04-015-N001], the “average tumor volume at day 22 after treatment started” value in experiment [2] (20 μg intratumoral injection three times per week) and in experiment [2] (200 μg intratumoral injection three times per week) was “significant reduction” in each case. For the same molecule, the “reduction in tumor growth (comparison between pept-ins)” value in experiment [2] (intratumoral, 20 μg and 200 μg) is on record as “strongest reduction in tumor growth”.

`CC(=O)N[C@@H](CCCCN)C(=O)N[C@H](C(=O)N[C@H](C(=O)N[C@H](C(=O)NCC(=O)N[C@@H](C)C(=O)N[C@H](C(=O)NCC(=O)N[C@@H](CCCCN)C(=O)NCC(=O)N[C@@H](Cc1ccccc1)C(=O)N[C@@H](CCCCN)C(=O)N[C@H](C(=O)N[C@H](C(=O)N[C@H](C(=O)NCC(=O)N[C@@H](C)C(=O)N[C@H](C(=O)NCC(=O)N[C@@H](CCCCN)C(N)=O)C(C)C)C(C)C)C(C)C)C(C)C)C(C)C)C(C)C)C(C)C)C(C)C` [04-015-N063]: inhibition in experiment [1] was half-maximal at 38.7 µM (IC50).

As to `CC(=O)N[C@@H](CN)C(=O)N[C@H](C(=O)N[C@H](C(=O)N[C@H](C(=O)NCC(=O)N[C@@H](C)C(=O)N[C@H](C(=O)NCC(=O)N[C@H](C(=O)NCC(=O)N[C@@H](CCCCN)C(=O)NCC(=O)N[C@@H](CO)C(=O)N[C@@H](CCCCN)C(=O)N[C@@H](Cc1c[nH]c2ccccc12)C(=O)N[C@H](C(=O)NCC(=O)N[C@@H](C)C(=O)N[C@H](C(=O)NCC(=O)N[C@H](C(=O)NCC(=O)N[C@@H](CN)C(N)=O)C(C)C)C(C)C)C(C)C)C(C)C)C(C)C)C(C)C)C(C)C)C(C)C` [04-033-N022] (Ac-[Dap]VVVGAVGVGKGSKWVGAVGVG[Dap]-NH2), inhibition in experiment [1] was half-maximal at 5 µM (IC50).

Ac-AVVVGAVAGSKVVVGAVK-NH2 [04-006-N082]: inhibition in experiment [1] was half-maximal at 18.2 µM (IC50).

In turn, Ac-AVVVGAVKGSAVVVGAVK-NH2 [04-006-N060] yielded an IC50 in experiment [1] of 31.7 µM.

Ac-AVVVGAVKGSKVVVGAVK-NH2 [04-006-N044]: the half-inhibitory concentration (IC50) in experiment [1] was 5.3 µM.

Ac-KLSVFAIKKLSVFAIK-NH2 [04-004-N016]: in experiment [1], it took 45.9 µM to reach half-maximal inhibition (IC50).

In the case of “Ac-KLVVVGAVKGSKLVVVGAVK-NH2 [04-014-N001]”, the “activity in the spheroid setting” value in experiment [1] (25 μM, 5 days of exposure) is “did not display activity”.

Molecule Ac-KVVVGAVAGSKVVVGAVK-NH2 [04-006-N050] came in with a concentration for half-maximal inhibition (IC50) in experiment [1] of 5.7 µM.

In turn, “Ac-KVVVGAVGKFFKVVVGAVGK-NH2 [04-015-N064]” came in with an IC50 in experiment [1] of 48.9 µM.

“Ac-KVVVGAVGVGKKVVVGAVGVGK-NH2 [04-033-N007]” had an IC50 in experiment [1] of 13.1 µM.

Ac-KVVVGAVKASKVVVGAVK-NH2 [04-006-N051]: in experiment [1], the IC50 is 10.4 µM.

Ac-KVVVGAVKGAKVVVGAVK-NH2 [04-006-N052] showed a half-maximal inhibitory concentration (IC50) in experiment [1] of 30.6 µM.

B1: pept-in 04-006-N053 (peptide)
peptide: Ac-KVVVGAVKGSAVVVGAVK-NH2
As for B1, in the experiment with KRAS G12V [3], the “IC50 on cell viability, NCI-H441 suspension spheroids, CellTiter Glo 3D, 5 days” value (shortened to “IC50 on cell viability”) was 21.6 µM.

B2: pept-in 04-033-N007 (peptide)
peptide: Ac-KVVVGAVGVGKKVVVGAVGVGK-NH2
As for B2, the “IC50 on cell viability” value with KRAS G12V [3] is 13.1 µM.

B3: pept-in 04-006-N044 (peptide)
peptide: Ac-AVVVGAVKGSKVVVGAVK-NH2
In the case of B3, in the experiment with KRAS G12V [3], the “IC50 on cell viability” value was 5.3 µM.

B4: pept-in 04-006-N059 (peptide)
peptide: Ac-KVVVGAVKGSKVVVGAVA-NH2
For B4, in the experiment with KRAS G12V [3], the “IC50 on cell viability” value worked out at 15.7 µM.

B5: pept-in 04-006-N066 (peptide)
peptide: Ac-KVVVGAVAGSKVVVGAVA-NH2
Consider B5, for which the “IC50 on cell viability” value with KRAS G12V [3] stood at 25.3 µM.

B6: pept-in 04-015-N063 (peptide)
peptide: Ac-KVVVGAVGKGFKVVVGAVGK-NH2
Regarding B6, the “IC50 on cell viability” value in the experiment with KRAS G12V [3] came to 38.7 µM.

B7: pept-in 04-006-N082 (peptide)
peptide: Ac-AVVVGAVAGSKVVVGAVK-NH2
On to B7, for which the “IC50 on cell viability” value with KRAS G12V [3] amounted to 18.2 µM.

B8: pept-in 04-006-N001 (peptide)
peptide: Ac-KVVVGAVKGSKVVVGAVK-NH2
For B8, in the experiment with KRAS G12V [4], the “IC50 on viability of adherent NCI-H441 cells, CellTiter Glo, 3 days” value (from here on “IC50 on viability”) is ~10 µM and the “decrease in viability of NCI-H441 suspension spheroids, 25 µM, 5 days, CellTiter Glo 3D” value (“decrease in viability” below) is ≥ 75%. The “Normalised viability NCI-H441 4 days of exposure to 25 µM (%)” value (from here on “Normalised viability NCI-H441 4 days … (%)”) with KRAS G12V [5] is 8.7%.

B9: pept-in 04-015-N064 (peptide)
peptide: Ac-KVVVGAVGKFFKVVVGAVGK-NH2
As to B9, in the experiment with KRAS G12V [3], the “IC50 on cell viability” value was 48.9 µM.

B10: pept-in 04-033-N001 (peptide)
peptide: Ac-KVVVGAVGVGKGSKVVVGAVGVGK-NH2
For the molecule B10, in the experiment with KRAS G12V [4], the “IC50 on viability” value is ~10 µM and the “decrease in viability” value was ≥ 75%. Further, the “Normalised viability NCI-H441 4 days … (%)” value in the experiment with KRAS G12V [5] is 5.2%.

B11: pept-in 04-006-N051 (peptide)
peptide: Ac-KVVVGAVKASKVVVGAVK-NH2
Take B11: the “IC50 on cell viability” value with KRAS G12V [3] was determined as 10.4 µM.

B12: pept-in 04-006-N050 (peptide)
peptide: Ac-KVVVGAVAGSKVVVGAVK-NH2
With B12, the “IC50 on cell viability” value with KRAS G12V [3] amounted to 5.7 µM.

B13: pept-in 04-006-N060 (peptide)
peptide: Ac-AVVVGAVKGSAVVVGAVK-NH2
With B13, the “IC50 on cell viability” value with KRAS G12V [3] came out at 31.7 µM.

B14: pept-in 04-004-N001 (peptide)
peptide: Ac-KLSVFAIKGSKLSVFAIK-NH2
Consider B14, for which, in the experiment with KRAS G12V [4], the “IC50 on viability” value is ~10 µM and the “decrease in viability” value was found to be 75%. Besides, the “Normalised viability NCI-H441 4 days … (%)” value with KRAS G12V [5] came out at 6.1%.

B15: pept-in 04-014-N001 (peptide)
peptide: Ac-KLVVVGAVKGSKLVVVGAVK-NH2
Regarding B15, the “IC50 on viability” value with KRAS G12V [4] was ~10 µM. Also, in the experiment with KRAS G12V [5], the “Normalised viability NCI-H441 4 days … (%)” value came to 9.1%.

B16: pept-in 04-004-N016 (peptide)
peptide: Ac-KLSVFAIKKLSVFAIK-NH2
With B16, the “IC50 on cell viability” value in the experiment with KRAS G12V [3] worked out at 45.9 µM.

B17: pept-in 04-006-N052 (peptide)
peptide: Ac-KVVVGAVKGAKVVVGAVK-NH2
In the case of B17, in the experiment with KRAS G12V [3], the “IC50 on cell viability” value worked out at 30.6 µM.

B18: pept-in 04-015-N001 (peptide)
peptide: Ac-KVVVGAVGKGSKVVVGAVGK-NH2
With B18, in the experiment with KRAS G12V [4], the “IC50 on viability” value is ~10 µM and the “decrease in viability” value is ≥ 75%. Besides, the “Normalised viability NCI-H441 4 days … (%)” value with KRAS G12V [5] worked out at 23.3%.
